# Test results as given in publication PMC8665133.
# Several values for one entry are separate records, joined by “and”; a condition that tells them apart may be missing. Identical values can stand only once. Like-named read-outs stand apart in the source and are kept apart here.
# How the values were obtained:
# [1] = target: T1, Transmembrane domain peptide of AM2 (TM-AM2), wild type (influenza A virus (strain not stated)); experiment: native MS
# [2] = target: T1, Transmembrane domain peptide of AM2 …; experiment: native MS; remark: listed apart in the source
binder,measurement,setting,value
"SDPLVVAASIIGILHLILWIL (modifications not checked) [Transmembrane domain peptide of AM2 (TM-AM2), wild type]",stoichiometry N,[1],6
same,stoichiometry N,[2],2 and 4
